Positions count from the first letter of the chain named. Each block holds one binder with its values, some of them ahead of it.
Key:
[1] = target: T1, human DLL3 on DLL3 expressing cancer cell lines (human, UniProt Q9NYJ7 27-618); assay: cell-based or functional assay
T1 sequence: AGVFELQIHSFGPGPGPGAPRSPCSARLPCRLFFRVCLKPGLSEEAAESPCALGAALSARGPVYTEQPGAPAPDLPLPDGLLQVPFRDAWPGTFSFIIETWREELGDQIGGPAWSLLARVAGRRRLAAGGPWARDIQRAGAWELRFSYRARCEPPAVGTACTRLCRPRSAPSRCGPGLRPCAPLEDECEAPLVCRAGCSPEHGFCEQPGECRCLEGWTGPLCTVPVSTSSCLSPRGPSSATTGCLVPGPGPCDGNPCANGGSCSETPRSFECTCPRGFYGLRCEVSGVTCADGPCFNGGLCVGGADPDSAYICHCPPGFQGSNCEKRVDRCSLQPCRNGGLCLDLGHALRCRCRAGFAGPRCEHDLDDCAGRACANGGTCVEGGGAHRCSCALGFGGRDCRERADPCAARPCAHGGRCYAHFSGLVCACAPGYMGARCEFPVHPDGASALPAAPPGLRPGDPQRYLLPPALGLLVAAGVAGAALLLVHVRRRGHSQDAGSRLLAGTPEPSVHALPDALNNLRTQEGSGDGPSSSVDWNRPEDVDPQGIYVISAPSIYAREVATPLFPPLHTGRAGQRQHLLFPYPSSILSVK

[2] = target: T1, human DLL3 on DLL3 expressing cancer …; assay: cell-based or functional assay; remark: listed apart in the source

B4: anti-DLL3 trispecific protein 1A011 (other, not shown: small tags and cut ends)
chain: EVQLVESGGGLVQPGGSLTLSCVASGSTSSINAIGWYRRAPGKQRELVAGISSDGSKVYIDSVKGRFTISRDNAKNSVYLQMNSLRAEDTAVYYCYYFRTVSGSSYRYWGQGTLVTVSS
TDCC EC50, CHO expressed purified protein [1]: 0.17 nM

B5: anti-DLL3 trispecific protein 1H012 (other, not shown: small tags and cut ends)
chain: B4 chain with I34M, I60V, Y106M, R107P
TDCC EC50, CHO expressed purified protein [1]: 0.063 nM

B6: anti-DLL3 trispecific protein 2E05 (other, not shown: small tags and cut ends)
chain: B4 chain with T28P, I34Y, I60S, Y106M, R107S
TDCC EC50, CHO expressed purified protein [1]: 0.072 nM

B8: anti-DLL3 trispecific protein 2H02 (other, not shown: small tags and cut ends)
chain: B4 chain with I34M, G35A, V48A, I60A, R99H, Y106M
TDCC EC50, CHO expressed purified protein [1]: 0.096 nM

B9: anti-DLL3 trispecific protein 2E02 (other, not shown: small tags and cut ends)
chain: B4 chain with S30A, I34M, I60V, Y106Q
TDCC EC50, CHO expressed purified protein [1]: 0.12 nM

Next, values leading:

TDCC EC50, CHO expressed purified protein [1]: 0.06 nM
B1: anti-DLL3 trispecific protein 4D09 (other, not shown: small tags and cut ends)
chain: EVQLVESGGGLVQPGGSLTLSCAASGSSVKFLSMAWYRQAPGKKRELVAGISADGSTDYILSVKGRFTISRDNAKNSVYLQMNSLRAEDTAVYYCYAYEWTTRYTYWGQGTLVTVSS

fold increase in TDCC potency compared to the parental DLL3 binder DH6 [2]: > 8 fold
B2: anti-DLL3 trispecific protein 4H011 (other, not shown: small tags and cut ends)
chain: B1 chain with K30S, F31R, A53V, L61D, E99R, Y104L

TDCC EC50, CHO expressed purified protein [1]: 0.098 nM
B3: anti-DLL3 trispecific protein 4D011 (other, not shown: small tags and cut ends)
chain: B1 chain with K30R, A53V, L61D, E99R, T101R

TDCC EC50, CHO expressed purified protein [1]: 0.043 nM
B7: anti-DLL3 trispecific protein 2C04 (other, not shown: small tags and cut ends)
chain: B4 chain with I31R, I34M, V58L, I60A, S102L, Y106M
